Laboratory results published in publication PMC4231748, “Human PrimPol mutation associated with high myopia has a DNA replication defect”.

Target: T1, PrimPol1-354 (polymerase domain, wild type) (human, UniProt Q96LW4 1-354)
T1 sequence: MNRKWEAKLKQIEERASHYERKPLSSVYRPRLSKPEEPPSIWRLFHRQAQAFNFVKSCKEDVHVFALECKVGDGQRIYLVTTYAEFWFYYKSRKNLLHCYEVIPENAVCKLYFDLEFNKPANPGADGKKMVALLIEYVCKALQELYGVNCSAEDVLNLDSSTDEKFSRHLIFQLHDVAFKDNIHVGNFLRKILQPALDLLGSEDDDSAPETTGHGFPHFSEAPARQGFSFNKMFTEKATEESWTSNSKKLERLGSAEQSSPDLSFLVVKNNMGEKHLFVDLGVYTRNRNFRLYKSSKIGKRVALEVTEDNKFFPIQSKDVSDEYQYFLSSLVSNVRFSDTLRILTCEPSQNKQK
Assay: EMSA; 10 mM Mg2+; text gives 0.67 uM, Figure 5 legend 0.69 uM; EMSA: 60 nM DNA, 10 mM Bis-Tris-Propane-HCl pH 7.0, 10 mM MgCl2, 1 mM DTT, 25 C, 60 min; 5% polyacrylamide gel in 0.5x TBE
Conditions: protein: recombinant; label: 5'-Hex on strand 1 (HP-20); 20 bp duplex, 5' overhang 30 nt on template strand (S12), other end blunt

B1: Overhanging DNA substrate (HP-20 primer / ND-50 TemplateTT) (dsDNA)
DNA 1: TGTCGTCTGTTCGGTCGTTC
DNA 2: CGCGCAGGGCGCACAACAGCCTTGAAGACCGAACGACCGAACAGACGACA
Kd: 690 nM
